Experimental data reported in the supplement of paper PMC9170038.

Test system: MS2 coat protein
Experiment: apparent KD of MS2 coat protein; designed switch direction (-1 OFF switch, 1 ON switch): -1; higher = weaker reporter binding
Procedure, shortened: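 The reported apparent KD is a per-design median over clusters, from curve fits of normalised cluster fluorescence. Protein titrations used SNAP-549-labelled MS2 coat protein, doubled from 0.7 or 1.5 nM to 3 µM, in Tris-HCl pH 7.5 buffer with KCl, MgCl2, BSA, DTT, tRNA and Tween-20, with no input, 200 uM small-molecule ligand, or an oligonucleotide input. The RNA switches were transcribed on Illumina chips by stalled E. coli RNA polymerase.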

[1] = input ligand: microRNA oligo, concentration not stated
[2] = Eterna round: R95, input ligand: microRNA oligo, concentration not stated

| Sequence | apparent KD of MS2 coat protein (input ligand: FMN 200 uM) | apparent KD of MS2 coat protein [1] | apparent KD of MS2 coat protein (input ligand: none) | apparent KD of MS2 coat protein (Eterna round: R95, input ligand: FMN 200 uM) | apparent KD of MS2 coat protein [2] | apparent KD of MS2 coat protein (Eterna round: R95, input ligand: none) |
| --- | --- | --- | --- | --- | --- | --- |
| CGGUGUAACAGAGGAUAUGAGCGCAACUGACGAUCAGAAGGCUGACAUGAGGAUCACCCAUGUGAUUUCUCAAUAUUAUACAUC [Prohibition 89 - Jieux - Exclusion NG 1] (Eterna round: R96, puzzle: Exclusion NG 1) | 34.2 nM | 324 nM | 153 nM | – | – | – |
| GUCAGCUCGUCAGGAUAUACAUGAGGAUCACCCAUGUGAUCAAUAGCAGCUUCGGCUGCAAUAAUGUAGAAGGGACGAGCUGAC [ENG2/8-F] (Eterna round: R96, puzzle: Exclusion NG 2) | 129 nM | 578 nM | 180 nM | – | – | – |
| GGUACUCAAAGAGUACCAAUACGAACAUGAGGAUCACCCAUGUAGGAUAUGCUACUCAAAGAGUAGCAGAAGGAUAUGAACCCU [Far Half Aptamer v8] (Eterna round: R96, puzzle: Exclusion NG 3) | 33.1 nM | 16.8 nM | 26.3 nM | – | – | – |
| GUGAGUAGUCAGGAUAUGCUGUACAAAAGUACAGCAGAAGGGAUUACAUGAGGAUCACCCAUGUUUACUUCGUG [Omei Ex6 B3] (Eterna round: R97, puzzle: Exclusion 6) | 105 nM | – | 29.7 nM | – | – | – |
| GACCAGGAAGGAUAUACAUACGGUUCGUGCCUUGGGCUGCGACAUGAGGAUCACCCAUGUAGAAGGUCCAGGUC [EX2 B.18] (Eterna round: R97, puzzle: Exclusion 2) | 47.1 nM | – | 18.6 nM | – | – | – |
| AUCAGCUCGUGAGGAUAUACAUGCGUGCUUCGGCACGAAUUUAAGAUCACAUGAGGAUCACCCAUGUAGAAGGUACGAGCUGAU [ENG2/3-C3] (Eterna round: R96, puzzle: Exclusion NG 2) | 498 nM | 287 nM | 275 nM | – | – | – |
| UAGCAUUGCCUUUGGUAGUGCUUUACAUGAGGAUCACCCAUGUAGGAUAUGGUAGGCAAAGCUUACCAGAAGGACAUGAUAAUU [Mat - Exclusion NG 3 - Mod of JL - D11] (Eterna round: R96, puzzle: Exclusion NG 3) | 198 nM | 51.6 nM | 76 nM | – | – | – |
| GGCCGGCGAGGAUAUACCGAAUGAAGGUGAUAUGAAUGAUUACAUGAGGAUCACCCAUGUAGAAGGCGCCGGCC [Default title] (Eterna round: R97, puzzle: Exclusion 2) | 327 nM | – | 146 nM | – | – | – |
| CCUCAGUAAGGAUAUCAGCUUAAGGAGGUGGUAAAGAGAGCUGAGAAGGUACAUGAGGAUCACCCAUGUUAAAA [Zatite] (puzzle: Exclusion 4) | – | – | – | 64.4 nM | 44.9 nM | 50.2 nM |
| CUAUUACGAGGAUAUGAUUUAAAUAACAUGAGGAUCACCCAUGUUUUUACGUUAUUUUAUUUAGAAGGCGUAUAGU [JR_E5_Sub029] (puzzle: Exclusion 5) | – | – | – | – | 42 nM | – |
| GGUCAGACGGUAGGAUAUCCAUAUCGAGUGACCCUUUCAUAACAUGAGGAUCACCCAUGUCGGUGGGAGAAGGGCUGUACGGCG [salish99_ExNG02_R04_002] (Eterna round: R96, puzzle: Exclusion NG 2) | 45.8 nM | 22.6 nM | 35.6 nM | – | – | – |
| GUCAGCUCGUGAGGAUAUAUAUACAUGAGGAUCACCCAUGUAAGAUCAGCACUUCGGUGCAGUAUAUAGAAGGCACGAGCUGAC [ENG2/13-A1] (Eterna round: R96, puzzle: Exclusion NG 2) | 46.1 nM | 21.6 nM | 29.1 nM | – | – | – |
| GUACGCUCAGGAUAUCAAGGGCUGUACAUGAGGAUCACCCAUGUUAUCUUGGUGUCAGCGUGAGAAGGGAGGGAAA [Xesoonesa] (Eterna round: R96, puzzle: Exclusion 5) | 27.2 nM | 20.2 nM | 28.6 nM | – | – | – |
| CCUCGACAUGAGGAUCACCCAUGUCAGGAUAUUGUGUCUCGGGUUUUUUACCGUUAGGCAAGAAGGGAUGUGUG [LRO-Excl1-14] (puzzle: Exclusion 1) | – | – | – | – | 19.7 nM | – |
| GCGUACUGAGGAUAUACAUGAGGAUCACCCAUGUGAAGAAGAAAGUAGUGAUGGUUAAGUAGAAGGCAGUAUGC [JR_Ex3_Sub063] (Eterna round: R97, puzzle: Exclusion 3) | 411 nM | – | 113 nM | – | – | – |
| GCACGGGUGGUAGGAUAUCCUUGCGAUUAGCAAGGAGAAGGACCACAUGAGGAUCACCCAUGUACCUCAAUUAUCCUUCCGUGC [Eli exng1 - 024] (Eterna round: R96, puzzle: Exclusion NG 1) | 16.8 nM | 10.4 nM | 14.5 nM | – | – | – |

| Sequence | apparent KD of MS2 coat protein (input ligand: FMN 200 uM) | apparent KD of MS2 coat protein [1] | apparent KD of MS2 coat protein (input ligand: none) | apparent KD of MS2 coat protein (Eterna round: R95, input ligand: FMN 200 uM) | apparent KD of MS2 coat protein [2] | apparent KD of MS2 coat protein (Eterna round: R95, input ligand: none) |
| --- | --- | --- | --- | --- | --- | --- |
| CCCGGAUCAACUCCCGGGAACAACAUGAGGAUCACCCAUGUCUAGGAUAUCCACCAGUCAAUAAAGGAGAAGGAGACGGUGGUU [Raesessoqu] (Eterna round: R96, puzzle: Exclusion NG 3) | 32.5 nM | 23.3 nM | 30.5 nM | – | – | – |
| UUAUACGUUGAGGAUAUGCGACUUAGUAUAGUUGUAGAAGGCGAUACAUGAGGAUCACCCAUGUUUAUGGGCAU [LRO-Ex6-09] (puzzle: Exclusion 6) | – | – | – | – | 227 nM | – |
| GGCAUCGGAGGAUAUACUAAUGGUGAUGCCCGAAGCUUUCUACUUGAGGAUCACCCAAGUAGAAGGCCGAUGCC [jl-ex2.4.80 ViennaUCT mod] (Eterna round: R97, puzzle: Exclusion 2) | 11 nM | – | 13.1 nM | – | – | – |
| UGUUGUUACGCAGGAUAUGUAUGAGGAUCACCCAUAAGAGUAUAUUUACCAUGAGGAUCACCCAUGUAGAAGGGCGGGUUAACA [pwkr exNG2 2xF5 1xFMN.10] (Eterna round: R96, puzzle: Exclusion NG 2) | 224 nM | 109 nM | 144 nM | – | – | – |
| CGUAUGUAAGGAUAUUAGUAGUAGUCAGAAUAGACUAUUACUGAGAAGGUACAUGAGGAUCACCCAUGUUAGCG [Eli x4 4.15] (Eterna round: R97, puzzle: Exclusion 4) | 229 nM | – | 31.6 nM | – | – | – |
| ACAUGUUAUGUAGGAUAUUGGACACAUGAGGAUCACCCAUGUACCCGGAGGCUUUACUAUGAGUUCGAGAAGGGUAUGUACAUG [Ex NG2 #69] (Eterna round: R96, puzzle: Exclusion NG 2) | 35.3 nM | 33.7 nM | 47.1 nM | – | – | – |
| CUGUACUGAGGAUAUACAUGAGGAUCACCCAUGUGAUUUAGUGCACGCGUACGUGUACGUAGAAGGCAGUACAG [Mat - Exclusion 3 - Eli Mod - D36] (Eterna round: R97, puzzle: Exclusion 3) | 183 nM | – | 25.2 nM | – | – | – |
| CCUGGGUAAGGAUAUUUGAUUCCCUCCGGUUAGGGAGGAUGGAAGAAGGUACAUGAGGAUCACCCAUGUGUGGA [Eternabot (L1) Solution 67] (Eterna round: R97, puzzle: Exclusion 4) | 94.7 nM | – | 97.8 nM | – | – | – |
| GUGAGGGAGUGAGGAUAUCAGGGAGGUGGGAAAUGAGAAGGUACAUGAGGAUCACCCAUGUAAGAGUAGGGAAGAGAGAAGAGU [Default title] (Eterna round: R96, puzzle: Exclusion NG 1) | 78.7 nM | 109 nM | 83.8 nM | – | – | – |
| AUCUUGAUAGGAUAUACAUGAGGAUCACCCAUGUCCCACCCGUUACCUCUGGCCCUAUGUAGAAGGAUCGUCUA [Exy#20] (Eterna round: R97, puzzle: Exclusion 3) | 50.5 nM | – | 68.5 nM | – | – | – |
| GUUAUGUCAGGAUAUGCUAAUGAUGAAUGAUCAGACAUGAUGUAGAAGGGACAUGAGGAUCACCCAUGUAAUAU [EX4 #7] (Eterna round: R97, puzzle: Exclusion 4) | 32.3 nM | – | 25 nM | – | – | – |
| AAGUCGACGGUGAGGAUAUUGGUUGAACGACAGAUCAAGAAGGCACAUGAGGAUCACCCAUGUGGGUAACGUCG [Brourd's EX4 #38] (Eterna round: R97, puzzle: Brourd's mod of Exclusion 4) | 34.5 nM | – | 19.1 nM | – | – | – |
| AGAAAGGUAGGAUAUACGAAAAAAAAGGGUAGAAAAAAAACACAUGAGGAUCACCCAUGUAGAAGGACCAAAGA [Mat - Exclusion 2 - Tesla mod - D31] (Eterna round: R96, puzzle: Exclusion 2) | – | 27.6 nM | – | – | – | – |
| AAAGAAACAGGAUAUGUAGGCUGCGACAUGAGGAUCACCCAUGUGUCGGUAUACAGUCCUAUAGAAGGGUUAUGAC [Tieder] (puzzle: Exclusion 5) | – | – | – | – | 13.1 nM | – |
| CUGGAGUCAGGAUAUGACGCAGUCCGCCCAAAGGGCGGAAAUCAGAAGGGACUUGAGGAUCACCCAAGUAAAAG [Gecear] (Eterna round: R97, puzzle: Exclusion 4) | 28.8 nM | – | 31.4 nM | – | – | – |
